Laboratory results from article PMC8563793, “C-Glycoside metabolism in the gut and in nature: Identification, characterization, structural analyses and distribution of C-C bond-cleaving enzymes” (Nature Communications, 2021).

Legend:
EuCGD (DfgA-B complex) = EuCGD (DfgA-B complex) ([Eubacterium] cellulosolvens, UniProt I5AX49+I5AX50); assay: steady-state kinetics, HPLC of aglycone; conditions: 30 °C, 2 min, 2 μM enzyme; enzymatically prepared substrate
[1] = substrate: O=C1[C@@H](O)[C@H](c2c(O)cc(O)c3c(=O)cc(-c4ccc(O)c(O)c4)oc23)O[C@H](CO)[C@H]1O; assay: steady-state kinetics, HPLC of aglycone; format: biochemical, human intestinal bacterium PUE; conditions: 30 °C, 90 min, 5 μM enzyme, enzymatically prepared substrate
[2] = substrate: O=C1[C@@H](O)[C@H](c2c(O)ccc3c(=O)c(-c4ccc(O)cc4)coc23)O[C@H](CO)[C@H]1O; assay: steady-state kinetics, HPLC of aglycone; format: biochemical, human intestinal bacterium PUE; conditions: 30 °C, 2 min, 2 μM enzyme, enzymatically prepared substrate
purified protein [3] = substrate: O=C1[C@@H](O)[C@H](c2c(O)cc3oc(-c4ccc(O)c(O)c4)cc(=O)c3c2O)O[C@H](CO)[C@H]1O; assay: purified protein; conditions: 30 °C, 2 μM enzyme, enzymatically prepared substrate
purified protein [4] = substrate: O=C1[C@@H](O)[C@H](c2c(O)cc3oc(-c4ccc(O)cc4)cc(=O)c3c2O)O[C@H](CO)[C@H]1O; assay: purified protein; conditions: 30 °C, 2 μM enzyme, enzymatically prepared substrate
[5] = substrate: O=C1[C@@H](O)[C@H](c2c(O)cc3oc(-c4ccc(O)c(O)c4)cc(=O)c3c2O)O[C@H](CO)[C@H]1O; assay: steady-state kinetics, HPLC of aglycone; format: biochemical, Microbacterium trichothecenolyticum; conditions: 30 °C, 30 min, 2 μM enzyme, enzymatically prepared substrate
[6] = substrate: O=C1[C@@H](O)[C@H](c2c(O)cc3oc(-c4ccc(O)cc4)cc(=O)c3c2O)O[C@H](CO)[C@H]1O; assay: steady-state kinetics, HPLC of aglycone; format: biochemical, Microbacterium trichothecenolyticum; conditions: 30 °C, 30 min, 2 μM enzyme, enzymatically prepared substrate
[7] = substrate: O=C1[C@@H](O)[C@H](c2c(O)cc3oc4cc(O)c(O)cc4c(=O)c3c2O)O[C@H](CO)[C@H]1O; assay: steady-state kinetics, HPLC of aglycone; format: biochemical, Microbacterium trichothecenolyticum; conditions: 30 °C, 30 min, 2 μM enzyme, enzymatically prepared substrate
purified protein [8] = substrate: Cc1c(C(=O)O)c(O)cc2c1C(=O)c1c(O)c([C@@H]3O[C@H](CO)[C@@H](O)C(=O)[C@H]3O)c(O)c(O)c1C2=O; assay: purified protein; conditions: 30 °C, 30 min, 2 μM enzyme, enzymatically prepared substrate
purified protein [9] = substrate: O=C1[C@@H](O)[C@H](c2c(O)cc(O)c3c(=O)cc(-c4ccc(O)c(O)c4)oc23)O[C@H](CO)[C@H]1O; assay: purified protein; conditions: 30 °C, 30 min, 2 μM enzyme, enzymatically prepared substrate
purified protein [10] = substrate: O=C1[C@@H](O)[C@H](c2c(O)cc3oc4cc(O)c(O)cc4c(=O)c3c2O)O[C@H](CO)[C@H]1O; assay: purified protein; conditions: 30 °C, 30 min, 2 μM enzyme, enzymatically prepared substrate

O=C1[C@@H](O)[C@H](c2c(O)cc3oc4cc(O)c(O)cc4c(=O)c3c2O)O[C@H](CO)[C@H]1O [compound 5, 3’-oxo-mangiferin]
Km (EuCGD (DfgA-B complex)): > 5 mM

B1: PuCGD (DgpB-C complex) (human intestinal bacterium PUE) (protein)
chain 1: MSNVKLGVTLYSFSTEYCQGKMTLEDCIRTAKELGAAGFEIVATQMIPSYPYVSDKFLGELKSICQYYDMEPVCYGANCDRGLRGDRNLTGDEMVAMAVRDIKNAHKMGCKVVREQWLMGPENFAKLAPFAEHYGVKVGIEVHNPETPITQSTKDYIAAIDKTGSKYLGLIPDFGCFANKPNKMNWDNALADGADKKLLEMARDMKYDNVPYDEAVKRLTAAGAKKVELTTMRDMYTFLTFKKDVSAELQGLKDMIPYCIHMHGKYHYMYENLQEAAIPYDDIMKIVSESDYDGYIVSEYEEYNSGHSIEMLRRHLKMMHNFVD
chain 2: MGLALRLNFVDVVCDDSLKNFWANGKKIGYQFDVRLSYYRGHFLSTIDEIGVKVDGVDVPAENISLCLDGKEYGVAELHDLVNVFWPIIEPATIKVFQPGGLSEEEHDVDFTLYFRSPYMALSETEYQSIDSCGSKRLNVQN
Km [1]: 0.79 mM
Km [2]: 12 mM
kcat [2]: 0.00683 s⁻¹

B2: EuCGD (DfgA-B complex) ([Eubacterium] cellulosolvens 6) (protein)
chain 1: MYRYEKKGPKRGVALYSYSAEFGLTKTLEDCFEDLHDMGAHGIEILANTHIENYPYPTDEWVEKWWRLCDKYEIVPVEYGNWIDSHVLGDRDLTTEESVEMLKRDIRLAHRLGFTVMRTKMPVINDLLEPVENWKEIIKGALPLAEELGIKMCPEIHTPSNLKGKLVNDFVEFIKETGTKNFGLNIDFSVFRTSFAEGEWVDPNYTPNKPEDIIPLLPYVYCCHAKFIHMSDDFKETTIPYEEVVKTMEDNGYEGYLLSEYEGADKYDEGYEVGQTLRKHHILLKNLLGD
chain 2: MEKQVIQSVGFRNIKNGNGEITGFQFKVKLPYYRGVFLSQIRPGTLFVDGQKIEKDQITWTINGEEYTNQEMRGDFKTHWATTKPAVLKVKMPGGLAQGYHDLKYGFCFTSSYMPPIIQDGLDPDKESMVYMPEFGHHVNERRLLIV
Km (purified protein [3]; 2 min): 11 mM
kcat (purified protein [3]; 2 min): 0.0045 s⁻¹
Km (purified protein [4]; 2 min): 3.6 mM
kcat (purified protein [4]; 2 min): 0.003 s⁻¹

B3: MtCGD (Microbacterium trichothecenolyticum) (protein)
chain 1: MTALGTPIQGVTLYSFTRAFHGREYDLEGLIRKTAADGFGPGLEIIGFSSFRGFPAIDDAYAGWFRDLIDEVGLVTTSLAVNADIGIHRDRLLNQDELIEYMTLQIKAAAKLGFPIARVQISIEPDSMEALAPIAEAHGVTLALEVHADQYASHPRILALRDRYEKVGSPFLGFTMDWGATVSGFAPSLIEAYRRRGASEELLGQVVDLWNTYYEQGPPADQADHGQRFGSFIGLAARHGRPDLGIDFGINGTGLFGPARVDDWRTIAPWIKHVHGKFFGIDENGEEPSVPVRDLVKLLVENGYNGAISSEYEGWHWNYWQSPFDIISDEQAVQRSAAEAAGSRMITDLAEARTQLGAWLPNTEGAHA
chain 2: MIPDRIIEQGTLRTDGPRAAVEVRLPWYRALPGSCIAGAELTIDGKTAPAESLRWEMNGAEFTFDELRTNIDEWWFPTDSAVLSGDLDIEADAEHEVTVGLTLYIPYIIISDTETLHIDEKNTKTMKAVAA
kcat [5]: 0.35 ± 0.033 s⁻¹
Km [6]: 8.2 ± 1.8 mM
kcat [6]: 0.533 ± 0.083 s⁻¹
Km [7]: 6.1 ± 1.4 mM
kcat [7]: 0.01 ± 0.0012 s⁻¹

B4: MiCGD (CarB-C complex) (Microbacterium sp.) (protein)
chain 1: MTALALPRLGVTLYSFTPYYHAREYSFEDLIRIAGERDLGPGLEIVGYQSIKGFPKLPDGFVKDFRRRVDEAGLELSAMGANADAGIPHDRLLNEDELTEYMAHQLHTAKELGFPIVRVQHSVTPDLMERLLPLAEKLDLTMGMEIHSPHSVHHPKIQALVERYEKLGSPHLGFIPDWGASLTRLPPSALQTYAAADVPRELLDAYDRQWDVFHAEGVITTDAEQGAQFRRMRELNERFGGDDVSVRIGTNAVGLFGHQRPEDWSAIMPWVVHVHGKFYGIDENGEEPSVPHGLLLRQLVDAGYTGYISSEWEGWHWNTTDDPFEMVAWQHRLMRRIFGEIEAEAGVR
chain 2: MFRERIIVQDSLVADESGSAFRIRLPWYRALPLSTIEELSVTVDGTAFDPARLRIAVNDGEWALAEAQLRTDDVWFVLDDATVRLPGLVLDAGAHEVQATLSMRIPYLPVAGKPLSMAETDQKRMDVKELTA
Km (purified protein [8]): 0.39 mM

B5: AgCGD2 (Arthrobacter globiformis NBRC 12137) (protein)
chain 1: MSEGIAGSGIELGITLYSLTSEFAAGLYTPETLIKAVADEGLGPGVEFNIAQMLRTYPDVDDDFVKLWRDSMDRYGLTPSAVGTNLDMGRRKDRDMTPDEEYDFFAAQLRTANKLGFHRVVIRSAGKELLRRLLPLAEKYDQKLGYEIHAPQGPNDPKILQIREMYAELGSDRLGFTADFSSTMHSLSPTLFRTLTQMGLPEEHFAVMQDIWRKPLPMQERNQEFEDYLRANNFDPAQLGPFTRLAFNMHGLVPPEEWLDIMPQIFHVHAKFYDIDENGNEPAMDIPRIVRQFVKGGYRGYLSSEWEGHAFADLGESDPIDLVKKQHSLMRRAIEEAVDPTVSQPALVETAK
chain 2: MATHNSLFQDSDVRKHPEGIAVSVQLPWYRSLWLSAVDDVAATVNGVKIPRESLRFELQGQTYSIAELPEQWETLWFVADKPDVVIPLDRIPDAGEEIDVEVILTLRLLYMQIAPMRYVGNRVAVERKVVLA
kcat (purified protein [9]): 0.667 ± 0.083 s⁻¹

B6: AgCGD1 (Arthrobacter globiformis NBRC 12137) (protein)
chain 1: MTSLGTPIQGVTLYSFTRAFHARQYDLDGLIRKVAAEGFGPGLELIGFSSLRGFPDGIDDAFVGQFRDLVAEVDLIPTSLAVNVDTGIRRDRLMNHDELVEYMSKQIEVAARLGFPIARVQISLTPDAMESLLPVAEKYGVTLALEVHADQHGAHERVLALRDRYEKLDSPLLGFTADWGATVTGFAPSLLEAYRRRGAAEDLLRQVVELWNGFYAEGPPNTQKVHGERFGAFIGLAARSGRPDLGIDFAINGTGLFGPAPLDTWLEIMPWVRHVHGKFFGIDENGEEPSVPVRDLVRQLVENGYSGAISSEYEGWHWNNWQDPFDIIRGEQAVQRSAAANAGSAMITDASEARRILNSHLAQPVRG
chain 2: MIADRIIEHGTLITRDGRAAVEVRIPWYRALPGSCIAGAALTVDGVAAPEDTLRWTMNNRTFSFEELVDETGEWWFPLDSAVLSGDLPVWDDQAEHEVRVDLKLCIPYIITDHGVLHIEEHDTKTMKVAQQ
Km (purified protein [3]; 30 min): 3.4 ± 0.3 mM
kcat (purified protein [3]; 30 min): 0.0095 ± 0.00033 s⁻¹
Km (purified protein [4]; 30 min): 3.5 ± 0.4 mM
kcat (purified protein [4]; 30 min): 0.0767 ± 0.0033 s⁻¹
Km (purified protein [10]): 3.7 ± 0.5 mM
kcat (purified protein [10]): 0.00283 ± 0.00017 s⁻¹
